Data from patent publication US20110288009A1, “LEPTIN AND LEPTIN ANALOG CONJUGATES AND USES THEREOF” (Angiochem Inc., priority 2008, published 2011).

What was measured:
[1] = in situ brain perfusion; threshold definition of efficient transport; cited from earlier work
[2] = system: ob/ob mice; assay: body weight of ob/ob mice treated with recombinant leptin; assay type: in vivo; conditions: 0.1 mg/mouse or 0.25 mg/mouse daily, FIG. 21
Procedure: As a control, we tested the ability of recombinant leptin to reduce body weight in ob/ob mice using either 0.1 mg/mouse or 0.25 mg/mouse daily.

[3] = in situ perfusion assay in lean and diet-induced obese (DIO) mice; assay type: in vivo; conditions: DIO mice compared with lean mice; FIG. 4A
Source text: Blood Flow Metab. 20(2):381-386.

T F F Y G G S R G K R N N F R T E E Y (TFFYGGSRGKRNNFRTEEY) [Angiopep-6]
transport across the BBB relative to that of Angiopep-1 (250 nM) [1]: 38.5%

B1: leptin: recombinant leptin used as control and comparator in Example 5 (protein, UniProt P41160 22-167, looked up)
Leptin: VPIQKVQDDTKTLIKTIVTRINDISHTQSVSAKQRVTGLDFIPGLHPILSLSKMDQTLAVYQQVLTSLPSQNVLQIANDLENLRDLLHLLAFSKSCSLPQTSGLQKPESLDGVLEASLYSTEVVALSRLQGSLQDILQQLDVSPEC
body weight [2]: reduce body weight in these mice in a dose-dependent manner | transport across the BBB in DIO mice versus lean mice [3]: reduced as compared to in lean mice
